Measurements reported in patent publication US20020122799A1 (published 2002).

Columns and labels:
immobilized RAGE = immobilized RAGE (Homo sapiens (Human), UniProt Q15109 23-342); test: binding to RAGE immobilized in culture wells
mutant human RAGE (82S) [1] = target: T1, mutant human RAGE (82S) (human, UniProt Q15109 23-404); test: radioligand binding to stably transfected CHO cells expressing human RAGE (82S), Klotz-Hunston fit
T1 construct: whole, on cells; Position 82 counts on the precursor with leader; also called RAGE (G82S); RAGE (S82S)
T1 sequence (Q15109 other isoform, or with tags, fused parts or gaps mutant): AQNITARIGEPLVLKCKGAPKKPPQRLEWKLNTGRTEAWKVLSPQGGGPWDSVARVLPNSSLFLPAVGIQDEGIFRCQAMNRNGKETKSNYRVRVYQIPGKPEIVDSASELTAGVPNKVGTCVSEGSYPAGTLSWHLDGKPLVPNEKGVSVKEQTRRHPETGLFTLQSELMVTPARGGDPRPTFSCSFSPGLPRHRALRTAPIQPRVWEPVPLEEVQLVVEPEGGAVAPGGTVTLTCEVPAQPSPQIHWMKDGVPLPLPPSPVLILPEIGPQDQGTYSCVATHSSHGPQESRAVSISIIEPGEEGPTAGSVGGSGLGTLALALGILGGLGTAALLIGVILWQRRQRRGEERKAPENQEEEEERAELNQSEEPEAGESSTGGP
Method: (§1) FIG. 11A. Immunoblotting. Lysates of stably-transfected CHO cells were prepared and subjected to immunoblotting using anti-human RAGE IgG (2 μg/ml). FIGS. 11B-C. Radioligand binding assays. Purified EN-RAGE was radiolabelled using ¹²⁵-I and radioligand binding assays were performed in 96-well tissue culture dishes containing the indicated transfected CHO cells. Assays were performed in the presence of the indicated concentration of radiolabelled EN-RAGE±an 50-fold molar excess of unlabeled EN-RAGE. Elution of bound material was performed in a solution containing heparin. Equilibrium binding data were analyzed according to the equation of Klotz and Hunston. Where indicated, pretreatment with either antibodies (70 μg/ml), human soluble RAGE or bovine serum albumin (50-fold molar excess) was performed. The mean±standard deviation (SD) is shown. In FIG. 11C, * indicates p<0.01 versus respective controls. FIG. 11D. Activation of p44/p42 MAP kinases. The indicated stably-transfected CHO cells were incubated with EN-RAGE, 10 μg/ml, for one hr. Cell lysates were subjected to SDS-PAGE and transfer of the gels' contents to nitrocellulose. Immunblotting was performed using anti-phosphorylated p44/p42 MAP kinase (1 μg/ml). […] In FIGS. 11D-11E, bands were scanned into a densitometer, and band density was quantified using ImageQuant. […]

[2] = target: T2, wild-type human RAGE (Receptor for Advanced Glycation Endproducts) (human, UniProt Q15109 23-404); test: radioligand binding to stably transfected CHO cells expressing wild-type human RAGE, Klotz-Hunston fit
T2 construct: whole, on cells; also called Receptor for AGE; wild-type RAGE (Gly82)
T2 sequence (Q15109 23-404): as the sequence (Q15109 other isoform, or with tags, fused parts or gaps mutant) above, with S60G counted along it
Method: as §1

[3] = target: T2, wild-type human RAGE (Receptor for …); test: cell-based or functional assay
mutant human RAGE (82S) [4] = target: T1, mutant human RAGE (82S); test: cell-based or functional assay
macrophage (MP) RAGE = target: T3, macrophage (MP) RAGE; test: binding to macrophages in culture wells
T3 construct: whole, on cells; also called RAGE on macrophages

[5] = target: T2, wild-type human RAGE (Receptor for …); test: binding to endothelial cells in culture wells

Chain of immobilized RAGE (Q15109 23-342 limits assumed, form in doubt): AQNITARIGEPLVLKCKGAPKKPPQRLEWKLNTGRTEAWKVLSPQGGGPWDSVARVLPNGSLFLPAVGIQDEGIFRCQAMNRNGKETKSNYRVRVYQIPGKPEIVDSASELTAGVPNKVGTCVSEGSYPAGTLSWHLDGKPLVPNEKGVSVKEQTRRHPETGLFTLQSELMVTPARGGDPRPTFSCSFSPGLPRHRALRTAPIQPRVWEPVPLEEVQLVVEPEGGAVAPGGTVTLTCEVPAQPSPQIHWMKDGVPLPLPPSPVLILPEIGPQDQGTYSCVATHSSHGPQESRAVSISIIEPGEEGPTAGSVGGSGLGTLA

- Kd (immobilized RAGE): ~75 nM
- Kd (mutant human RAGE (82S) [1]): ~77 nM
- Kd [2]: ~122 nM
- MMP-9 activity (zymography) of human MPs [3]: ~2.3 fold
- NF-kB nuclear binding activity (EMSA) in CHO transfectants [3]: ~5.4 fold
- activation of p44/p42 MAP kinases in human MPs [3]: ~2.2 fold
- adhesion of Molt-4 cells to cultured ECs [3]: 7 fold
- expression of cell-surface VCAM-1 on cultured ECs [3]: 4.3 fold
- generation of IL-6 by human MPs [3]: ~1.5 fold
- generation of TNF-alpha by human MPs [3]: ~4 fold
- phosphorylated p44/42 MAP kinases in CHO transfectants [3]: ~2 fold
- IL-6, mutant RAGE against wild-type MPs (mutant human RAGE (82S) [4]): ~7.3 fold
- MMP-9 activity (zymography) of human MPs (mutant human RAGE (82S) [4]): ~4.7 fold
- MMP-9 activity, mutant RAGE allele against wild-type receptor MPs (mutant human RAGE (82S) [4]): ~2 fold
- NF-kB gel shift band (EMSA) in CHO transfectants (mutant human RAGE (82S) [4]): ~11.3 fold
- NF-κB activation, mutant against wild-type receptor (mutant human RAGE (82S) [4]): ~2.1 fold
- TNF-alpha, RAGE (G82S)/(S82S) against wild-type RAGE MPs (mutant human RAGE (82S) [4]): ~4.5 fold
- elaborated TNF-alpha by human MPs (mutant human RAGE (82S) [4]): ~17.8 fold
- generation of IL-6 by human MPs (mutant human RAGE (82S) [4]): ~10.9 fold
- phosphorylated p44/42 MAP kinases in CHO transfectants (mutant human RAGE (82S) [4]): ~3.9 fold
- phosphorylated p44 and p42 MAP kinases in human MPs (mutant human RAGE (82S) [4]): ~4.8 fold
- Kd (macrophage (MP) RAGE): ~75 nM
- Kd [5]: ~75 nM
B1: EN-RAGE (Extracellular Novel RAGE binding protein) (ligand, bovine, UniProt P79105 2-92, looked up)
chain: TKLEDHLEGIINIFHQYSVRVGHFDTLNKRELKQLITKELPKTLQNTKDQPTIDKIFQDLDADKDGAVSFEEFVVLVSRVLKTAHIDIHKE
modifications: radiolabelled with 125-I (Iodobeads) in the radioligand binding assays
notes: mature; also called S100A12
